Data from paper PMC12297416.

Molecular target: NusA (E. coli (endogenous in MG1655)) (UniProt P0AFF6)
Test: single-molecule tracking in live cells; HaloTag fusions labelled with JFX549 in growing E. coli at 37 °C; 5 ms camera exposure; HMM fit of diffusion trajectories, 5-state models coarse-grained with a threshold at 1 µm^2/s (slow diffusion state = bound)

dwell time in the slow-diffusion state: 30 ms
occupancy in the slow state (after cell sorting by size): 11%
steady-state fraction in the slow-diffusion state: 14%
Substance: IF2-Domain-I-HaloTag (domain or fragment)
